# From article PMC10374146
# Target: Irr (iron response regulator) (Brucella melitensis M5-90, UniProt Q842L5 1-145)
# Test: EMSA
# Conditions: protein: ivt; tags: Halo (pDAP-Halo-Kan vector); chain copies: 2; label: biotin; blunt
row,Binder,binding result
1,BME_RS13655 (2Fe-2S binding protein) (dsDNA) DNA 1: CGGTTTATTTTGTTTTTTTAGTTTC DNA 2: GAAACTAAAAAAACAAAATAAACCG,binds
2,BME_RS09560 (hypothetical protein) (dsDNA) DNA 1: ATGTTATAGAGCGATTCTGGTT DNA 2: AACCAGAATCGCTCTATAACAT,binds
3,BME_RS01725 (membrane protein) (dsDNA) DNA 1: GCATATTTTAGAATTATTCTAAATT DNA 2: AATTTAGAATAATTCTAAAATATGC,binds
4,BME_RS10660 (zntA) (dsDNA) DNA 1: TCAGGCAAGCTTCATGCCCATATCC DNA 2: GGATATGGGCATGAAGCTTGCCTGA,binds
5,BME_RS14525 (ftrA) (dsDNA) DNA 1: CTTAATGAAAAATCTATTCAG DNA 2: CTGAATAGATTTTTCATTAAG,binds
